Data from US20030143595A1.

Target: Shh-AP fusion protein (Sonic hedgehog fused to alkaline phosphatase)
Experiment: ligand-receptor binding study, Scatchard analysis (FIG. 3)

Sequence of Shh-AP fusion protein (Sonic hedgehog fused to alkaline phosphatase) (Q62226 25-198): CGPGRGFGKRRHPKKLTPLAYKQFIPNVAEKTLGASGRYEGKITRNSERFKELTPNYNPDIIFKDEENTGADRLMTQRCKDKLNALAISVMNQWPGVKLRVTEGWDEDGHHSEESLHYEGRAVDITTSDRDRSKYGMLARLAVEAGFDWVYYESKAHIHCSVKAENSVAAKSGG

B1: murine HIP polypeptide (mouse hedgehog interacting protein) (receptor)
chain: LGFFEGDAKFGERSEGSGARRRRCLNGNPPKRLKRRDRRVMSQLELLSGGEILCGGFYPRVSCCLQSDSPGLGRLENKIFSATNNSECSRLLEEIQCAPCSPHSQSLFYTPERDVLDGDLALPLLCKDYCKEFFYTCRGHIPGLLQTTADEFCFYYARKDAGLCFPDFPRKQVRGPASNYLGQMEDYEKVGGISRKHKHNCLCVQEVMSGLRQPVSAVHSGDGSHRLFILEKEGYVKILTPEGELFKEPYLDIHKLVQSGIKGGDERGLLSLAFHPNYKKNGKLYVSYTTNQERWAIGPHDHILRVVEYTVSRKNPHQVDVRTARVFLEVAELHRKHLGGQLLFGPDGFLYIILGDGMITLDDMEEMDGLSDFTGSVLRLDVDTDMCNVPYSIPRSNPHFNSTNQPPEVFAHGLHDPGRCAVDRHPTDININLTILCSDSNGKNRSSARILQIIKGRDYESEPSLLEFKPFSNGPLVGGFVYRGCQSERLYGSYVFGDRNGNFLTLQQSPVTKQWQEKPLCLGASSSCRGYFSGHILGFGEDELGEVYILSSSKSMTQTHNGKLYKIVDPKRPLMPEECRVTVQPAQPLTSDCSRLCRNGYYTPTGKCCCSPGWEGDFCRIAKCEPACRHGGVCVRPNKCLCKKGYLGPQCEQVDRNVRRVTRAGILDQIIDMTSYLLDLTSYIV
Kd: 1 nM
